The target in test [1] is biotinylated human IL-1RI (human) (UniProt P14778). In words: IGEN (ECL) competition, inhibition of IL-1 signaling complex formation; concentrated stock. As to conditions: ligand.
The target is the same in test [2]. As to the kind of experiment: IGEN (ECL) competition, inhibition of IL-1 signaling complex formation. The conditions noted are these: ligand.

biotinylated human IL-1RI (human), sequence (P14778 18-336): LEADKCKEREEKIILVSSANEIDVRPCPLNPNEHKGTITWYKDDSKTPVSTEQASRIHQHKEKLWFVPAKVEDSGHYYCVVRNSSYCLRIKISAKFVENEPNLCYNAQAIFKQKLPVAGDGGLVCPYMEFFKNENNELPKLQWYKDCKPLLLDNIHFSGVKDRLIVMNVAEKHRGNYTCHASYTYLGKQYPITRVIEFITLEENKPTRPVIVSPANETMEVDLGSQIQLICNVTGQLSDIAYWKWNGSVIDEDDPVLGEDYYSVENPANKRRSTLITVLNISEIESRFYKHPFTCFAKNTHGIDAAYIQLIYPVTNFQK

By EC50 is commonly meant the concentration that produces a half-maximal response. On to “IL-1ra K93A mutant protein (from UniProt P18510 26-177)”, for which the values for the EC50 in test [1] and in test [2] were 0.873 nM and 0.562 nM, respectively.

These data come from patent US20050282752A1.
